Article PMC4646333

Assays:
[1] = molecular target: R117A mutant of ferritin from Pyrococcus furiosus (R117A-PfFtn) (Pyrococcus furiosus) (UniProt Q8U2T8)
[2] = molecular target: wild-type ferritin from Pyrococcus furiosus (WT-PfFtn) (Pyrococcus furiosus) (UniProt Q8U2T8); assay: native gel or EMSA; native gel electrophoresis of apo protein; WT-PfFtn 5 μM monomer, R117A-PfFtn 4.3 or 80 μM monomer

| rate of Fe(II) oxidation (Fe(III) formation at 315 nm after addition of two Fe(II) per subunit), R117A-PfFtn against WT-PfFtn [1] [fold] | stoichiometry N [2] | Substance |
| --- | --- | --- |
| > 100 | – | R117A mutant of ferritin from Pyrococcus furiosus (R117A-PfFtn) (from UniProt Q8U2T8 1-174) (natural protein) |
| – | 24 | wild-type ferritin from Pyrococcus furiosus (WT-PfFtn) (from UniProt Q8U2T8 1-174) (natural protein) |
